Results taken from the supplement of paper PMC7877785.
± gives the uncertainty stated by the source.

Test: self-splicing fitness, log relative to wild type (ln ratio); higher = more splicing; Tetrahymena group I intron in knt gene, E. coli kanamycin selection, DiMSum; sequences stand for … in CUCUCU…GGAGGGAAAAGUUAUCAGGCAUGCACCUGGUAGCUAGUCUUUAAACCAAUAGAUUGCAUCGGUUUAAAAGGCAAGACCGUCAAAUUGCGGGAAAGGGGUCAACAGCCGUUCAGUACCAAGUCUCAGGGGAAACUUUGAGAUGGCCUUGCAAAGGGUAUGGUAAUAAGCUGACGGACAUGGUCCUAACCACGCAGCCAAGUCCUAAGUCAACAGAUCUUCUGUUGAUAUGGAUGCAGUUCACAGACUAAAUGUCGGUCGGGGAAGAUGUAUUCUUCUCAUAAGAUAUAGUCGGACCUCUCCUUAAUGGGAGCUAGCGGAUGAAGUGAUGCAACACUGGAGCCGCUGGGAACUAAUUUGUAUGCGAAAGUAUAUUGAUUAGUUUUGGAGUACUCGUGGUCG
Method in brief: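 Library with all eight P1ex-region intron nucleotides randomised, intron inside the knt kanamycin-resistance gene on pET-22b(+), in E. coli BL21(DE3). Cells grew overnight at 37°C or 30°C on LB agar with or without 25 μg/mL kanamycin (plus 100 μg/mL carbenicillin, 50 μM IPTG, 0.2% rhamnose), in six replicate transformations. Pooled colonies were amplicon-sequenced on Illumina HiSeq 2500. DiMSum fitness is the error-weighted combination of wild-type-normalised replicate fold changes, kanamycin versus none.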

| Sequence | self-splicing fitness (ln) (30 °C) | self-splicing fitness (ln) (37 °C) |
| --- | --- | --- |
| AAGAAGCAAUAUUACGGUGA | -1.11 ± 0.078 | -0.329 ± 0.092 |
| ACCGAGCAAUAUUACGCACU | -1.62 ± 0.14 | -0.517 ± 0.13 |
| CCCUAGCAAUAUUACGCGAA | -1.83 ± 0.2 | -2.2 ± 0.23 |
| CAUUAGCAAUAUUACGCUUU | -3.35 ± 0.23 | -1.06 ± 0.16 |
| AUGCAGCAAUAUUACGUAUA | -2.57 ± 0.27 | -1.6 ± 0.16 |
| GAAUAGCAAUAUUACGGGUA | -2.2 ± 0.19 | -1.2 ± 0.14 |
| UCGUAGCAAUAUUACGACCG | -1.23 ± 0.18 | -0.438 ± 0.34 |
| GCGGAGCAAUAUUACGGCUG | -2.93 ± 0.34 |  |
| UGUAAGCAAUAUUACGCAGU | -2.92 ± 0.22 | -2.22 ± 0.24 |
| UUUUAGCAAUAUUACGAAAC |  | -2.4 ± 0.49 |
| GACUAGCAAUAUUACGUAAU | -1.31 ± 0.077 | -0.482 ± 0.092 |
| AAGCAGCAAUAUUACGUCGA | -1.03 ± 0.12 | -0.392 ± 0.11 |
| UCAGAGCAAUAUUACGCGGA | -2.96 ± 0.33 | -1.64 ± 0.17 |
| UCAGAGCAAUAUUACGGCCA | -2.1 ± 0.27 | -2.17 ± 0.32 |
| AUACAGCAAUAUUACGCGUU | -3.01 ± 0.14 | -0.461 ± 0.099 |
| UAGGAGCAAUAUUACGCAUG | -1.64 ± 0.2 | 0.135 ± 0.15 |
| GCUGAGCAAUAUUACGCGCG | -0.818 ± 0.16 | -0.503 ± 0.19 |
| AUUCAGCAAUAUUACGACGG | -2.61 ± 0.19 | -1.52 ± 0.17 |
| UCAUAGCAAUAUUACGACAU | -4.005 ± 0.032 | -2.92 ± 0.042 |
| UAACAGCAAUAUUACGAUAC | -2.65 ± 0.39 | -2.7 ± 0.48 |
| UCCCAGCAAUAUUACGUUUU | -3.06 ± 0.11 | -1.81 ± 0.15 |
| GAUAAGCAAUAUUACGACGU | -0.187 ± 0.076 | 0.339 ± 0.091 |
| CGGGAGCAAUAUUACGGGAA |  | -1.85 ± 0.41 |
| UAAUAGCAAUAUUACGAUUG | 0.193 ± 0.068 | 0.0133 ± 0.076 |
| CAGGAGCAAUAUUACGAAUU | -3.43 ± 0.35 | -2.43 ± 0.3 |
| AGAAAGCAAUAUUACGGGCU | -1.04 ± 0.12 | -0.993 ± 0.13 |
| GUAUAGCAAUAUUACGUCCA | -1.58 ± 0.26 | -0.506 ± 0.23 |
